From patent publication US20220323598A1 (NATIONAL UNIVERSITY CORPORATION TOKAI NATIONAL HIGHER …, published 2022) come the findings set out here.

The target in experiment [1] is T1, human ROR1 protein (GenBank accession No. NP_005003.2) (human, UniProt Q01973 30-937).
T1 construct: whole, on cells; also called hROR1; endogenous human ROR1
The experiment can be described thus: flow cytometry on NCI-H358 cells, relative affinity. The method, then: To inspect response of the antibodies obtained as described above to an endogenous human ROR1, response to an ROR1 high expressing cell NCI-H358 (ATCC accession No. CRL-5807) line was observed as below. The antibodies were purified from the culture supernatant of each hybridoma clone by a general affinity purification method using Protein A-Sepharose, respectively. The obtained purified antibodies were analyzed for the average fluorescence intensity of flow cytometry under the same condition (the same number of NCI-H358 (1×10⁵), the same concentration of respective purified antibodies, and the same concentration of secondary (detected) antibodies). Further, data was acquired also for the average fluorescence intensity that depends on the antibody concentration, the detection limit at a low concentration was analyzed, and thereby relative affinity was evaluated. FIG. 2 to FIG. 4 illustrate the results in a form of graphs. The horizontal axis of each graph represents the used antibody concentration (ng/mL), and the vertical axis represents the average fluorescence intensity (MFI) in flow cytometry. FIG. 2A is a diagram illustrating the response of anti-human ROR1 antibodies to ROR1 expressing cells of acquired monoclonal antibodies (2 AM series and 2AC series). […]

For experiment [2], the target named is T1, human ROR1 protein (GenBank accession …). Nature of the experiment: flow cytometry, Alexa Fluor 488 labeled antibody at 1 µg/ml on ROR1 high (NCI-H1975, PC-9) and ROR1 low (A427, NCI-H460) expressing cell lines. The source says: To inspect response of antibodies obtained as described above to an endogenous human ROR1, the response to the ROR1 high expressing cell line (NCI-H1975, PC-9) and the ROR1 low expressing cell line (A427, NCI-H460) was observed as follows. Note that NCI-H1975 (ATCC accession No. CRL-5908), A427 (ATCC accession No. HTB-53), and NCI-H460 (ATCC accession No. HTB-177) were purchased from American Type Culture Collection. The PC-9 cell line (RCB 4455) was obtained from RIKEN cell bank. Various cell lines were seeded on 6-well dishes to have 2×10⁵/well, cultured at 37 degrees Celsius for 24 hours, and collected after PBS washing. After chimerized antibodies labeled by using Alexa Fluor (registered trademark) 488 Antibody Labeling Kit (Thermo Fisher Scientific; A20181) were diluted to 1 μg/ml and reacted on ice for one hour, the resultant was washed with a PBS, and the reaction intensity was analyzed by flow cytometry. […] FIG. 6 illustrates graphs indicating the response of chimerized antibodies to the ROR1 high expressing cell line and the ROR1 low expressing cell line.

T1 sequence (Q01973 30-937): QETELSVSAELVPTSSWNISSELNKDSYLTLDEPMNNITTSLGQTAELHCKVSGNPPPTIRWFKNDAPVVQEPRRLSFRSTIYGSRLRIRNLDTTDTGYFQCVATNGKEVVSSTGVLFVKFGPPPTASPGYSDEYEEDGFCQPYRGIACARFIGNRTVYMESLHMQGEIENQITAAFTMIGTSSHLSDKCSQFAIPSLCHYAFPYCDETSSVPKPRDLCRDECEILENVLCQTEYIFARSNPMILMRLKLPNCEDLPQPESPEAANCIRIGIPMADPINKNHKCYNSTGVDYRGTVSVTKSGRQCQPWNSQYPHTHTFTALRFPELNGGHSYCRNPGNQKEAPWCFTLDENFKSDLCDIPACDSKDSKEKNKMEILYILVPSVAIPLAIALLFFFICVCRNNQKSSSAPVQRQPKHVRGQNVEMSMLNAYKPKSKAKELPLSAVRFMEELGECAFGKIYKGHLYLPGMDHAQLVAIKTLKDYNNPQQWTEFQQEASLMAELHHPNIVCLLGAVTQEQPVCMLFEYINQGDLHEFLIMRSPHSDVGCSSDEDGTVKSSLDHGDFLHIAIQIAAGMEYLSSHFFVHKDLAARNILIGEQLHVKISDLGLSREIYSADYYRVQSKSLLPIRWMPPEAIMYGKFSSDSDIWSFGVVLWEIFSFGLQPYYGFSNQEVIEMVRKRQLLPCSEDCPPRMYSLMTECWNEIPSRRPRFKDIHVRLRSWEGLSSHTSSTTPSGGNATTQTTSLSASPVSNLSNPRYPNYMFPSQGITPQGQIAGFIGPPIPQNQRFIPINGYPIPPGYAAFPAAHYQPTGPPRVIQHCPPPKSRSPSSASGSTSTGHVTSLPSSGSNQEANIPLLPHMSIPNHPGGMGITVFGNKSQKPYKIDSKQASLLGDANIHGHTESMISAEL

B1: 2DC_5-2 (antibody, mouse IgG1, V domains shown)
VH: EVKLVESGGGLVKPGGSLKLSCAASGFTFSSYAMSWVRQTPEKRLEWVAAINTKGGSTYYPDTVKDRFTISRDNAKNILYLQMSSLRSEDTALYYCARHEPVYDYAMDYWGQGTSVTVSS
VL: DIKMTQSPSSMYASLGERVTITCKASQDINSYLSWFQQKPGKSPKTLIYRANRLVDGVPSRFSGSGSGQDYSLTISSLECGDMGIYYCLQYDEFPYTFGGGTKLEIK
notes: VH was cloned with a mouse IgG1 CH1 primer and VL with a kappa constant region primer; also called clone 2DC_5-2
Take B1: in experiment [1], the binding result was “binds”.

B2: chimeric antibody M1 (antibody, human IgG1, V domains shown)
VH: B1 VH
VL: B1 VL
notes: Mouse VH and VL of 2DC_5-2 in a vector carrying the human IgG1 constant region; also called chimerized antibody obtained from clone 2DC_5-2
Regarding B2, in experiment [2], the binding result is recorded as “binds”.

B3: 6AM_120-2 (antibody, mouse IgG1, V domains shown)
VH: EIQLQQSGAELVKPGASVKISCKASGYSFTGYNMNWVKQSHGKSLEWIGNINPYYGNTSYNQKFKGKATLTVDKSSSTAYMQLNSLTSEDSAVYYCAREGFEYFDYWGQGTTLTVSS
VL: DIQMTQSPASLSASVGETVTITCRASENIYSYLAWYQQKQGKSPQLLVYNVKTLAEGVPSRFSGSGSGTQFSLKINSLQPEDFGSYYCQHHYGIPYTFGSGTKLEIK
notes: VH was cloned with a mouse IgG1 CH1 primer and VL with a kappa constant region primer
Regarding B3, the binding result in experiment [1] is “binds”.

B4: chimeric antibody M3 (antibody, human IgG1, V domains shown)
VH: B3 VH
VL: B3 VL
notes: Mouse VH and VL of 6AM_120-2 in a vector carrying the human IgG1 constant region; also called chimerized antibody obtained from clone 6 AM_120-2
With B4, the binding result in experiment [2] is listed as “binds”.
